In paper PMC11764276 (Molecular Therapy, 2024):
Positions count from the first letter of the chain named.

Legend:
[1] = biological target: T1, RBD (residues 334–527 of the SARS-CoV-2 spike glycoprotein) (SARS-CoV-2, wild type (Wuhan-Hu-1 / …, UniProt P0DTC2)); experiment: SPR; Biacore 8k; antibody captured on a Series S Protein A chip to ~200 RU or greater; 4X serially diluted RBD starting at 1,000 nM flowed at 50 uL/min, 120 s contact, 600 s dissociation; HBS-EP+ buffer; 1:1 Langmuir fitting, steady state analysis, or two-state reaction fitting; conditions: both partners purified
T1 construct: also called COV2_RBD-his; WT RBD

[2] = biological target: T1, RBD (residues 334–527 of the SARS-CoV-2 …); experiment: cell-based or functional assay
[3] = biological target: T1, RBD (residues 334–527 of the SARS-CoV-2 …); experiment: ELISA; plates coated with anti-his antibody, 10 ug/mL COV2_RBD-his captured; antibody from 8 ug/mL, 5X dilution series, in duplicate, 1 h at RT; anti-human-Fc-HRP detection; AUC divided by that of 2196 WT; conditions: both partners purified

B1: 2196 WT (recombinant mAb COV2-2196) (antibody, V domains shown)
VH: QMQLVQSGPEVKKPGTSVKVSCKASGFTFMSSAVQWVRQARGQRLEWIGWIVIGSGNTNYAQKFQERVTITRDMSTSTAYMELSSLRSEDTAVYYCAAPYCSSISCNDGFDIWGQGTMVTVSS
VL: not shown
notes: heavy chain of COV2-2196 (IGHV1-58); light chain of COV2-2196 (IGKV3-20); Whole human IgG (captured on Protein A, detected by anti-human Fc); HC vector with IgG VH leader (UniProt Q9Y298), LC vector with IGKV4-1 leader (UniProt P06312); also called WT 2196; COV-2196
- Kd [1]: 1.8 nM
- IC50 of neutralization of SARS-CoV-2 (USA-WA1/2020 spike) pseudovirus on HuCHOAce2 cells [2]: 0.08 ng/mL

B2: 2196_CDRL3_Q (antibody, V domains shown)
VH: B1 VH
VL: not shown
notes: Whole human IgG; also called DMAb-Q
- AUC ratio to 2196 WT [3]: > 0.975
- fold change of IC50 against 2196 WT [3]: < 2.14 fold

B3: DMAb-2196_des2_GP (antibody, V domains shown)
VH: B1 VH
VL: EIVLTQSPGTLSLSPGERATLSCRASQTISNSYVAWYQQKPGQAPRLLIYGASSRATGIPDRFSGSGSGTDFTLTISRLEPEDFAVYYCQHYGSSGPWTFGQGTKVEIK
notes: Whole human IgG; also called DMAb-Des2_GP
- binding result [1]: binds

B4: DMAb-2196_AFS_(AA_NT)_var2 (antibody, V domains shown)
VH: B1 VH
VL: B3 VL with I2V, K40R, T57A, G96R, P97G
notes: Whole human IgG; also called AFS variant var2
- Kd [1]: 1.6 nM
- IC50 of neutralization of SARS-CoV-2 pseudovirus on HuCHOAce2 cells [2]: 0.05 ng/mL

B5: 2196 HC + 2072 LC (antibody, V domains shown)
VH: B1 VH
VL: not shown
notes: as the heavy chain of m2; light chain of antibody 2072 (IGKV3-20, clonally related to COV2-2196); Kabat numbering; also called DMAb-2196-HC + DMAb-2072-LC
- Kd [1]: 14.3 nM

B6: 2196_CDRL1_des2 (antibody, V domains shown)
VH: B1 VH
VL: B3 VL with G96R, P97G
notes: as the heavy chain of m2; as the light chain of m2, with the CDRL1 and CDRL1-adjacent residues of alphamod1 but residues 31 and 32 kept as in 2196 WT; Kabat numbering; Whole human IgG; also called DMAb-Des2; DMAb-2196_Des2
- AUC ratio to 2196 WT [3]: > 0.975
- fold change of IC50 against 2196 WT [3]: < 2.14 fold

B7: DMAb-2196_AFS_(AA_NT)_var3 (antibody, V domains shown)
VH: B1 VH
VL: B3 VL with I2V, T28S, I29V, N31S, V34L, Y50F, S77T, F84S, G96R, P97G
notes: Whole human IgG; also called AFS variant var3
- Kd [1]: 3.2 nM
- IC50 of neutralization of SARS-CoV-2 pseudovirus on HuCHOAce2 cells [2]: 0.06 ng/mL

B8: 2196_CDRL3_GP (antibody, V domains shown)
VH: B1 VH
VL: not shown
notes: Whole human IgG; The designs are said to be based on positions 95 and 95A, so the proline probably stands at 95A; also called DMAb-GP
- AUC ratio to 2196 WT [3]: > 0.975
- fold change of IC50 against 2196 WT [3]: < 2.14 fold
